The target in this experiment is neuropilin-1 (NRP1) (mouse (endogenous protein of the mouse …, UniProt P97333 22-923)). Kind of experiment: co-immunoprecipitation with anti-NRP1 antibody from NSC-34 lysates, anti-V5 Western blot. How it is done:
Cells were grown to 70% confluency before transfection. A human wild-type, P234KY, or ΔETAQ GARS cDNA was cloned into the pcDNA6 plasmid to express GARS in-frame with a V5 tag. Transfections were performed using Lipofectamine 2000 (Invitrogen) according to the manufacturer's instruction. For cell lysate preparations, NSC-34 cells (36 hours after transfection) were washed twice in phosphate-buffered saline (PBS), scraped into PBS, pelleted, and resuspended in Pierce IP Lysis Buffer (Thermo Scientific) for 30 min and centrifuged for 7 min at 12,000×g; the insoluble fraction was discarded. Protein G beads (Invitrogen) were pre-incubated with anti-NRP1 antibody (Abcam) or rabbit IgG (Cell signaling) for 30 min before mixed with the cell lysates for overnight. […] Wild-type and mutant GARS proteins were detected using mouse monoclonal V5 antibody purchased from Invitrogen. NRP1 was detected by utilizing the same antibody for co-immunoprecipitation. […]
After immunoprecipitation with an anti-NRP1 antibody, proteins were subjected to Western blot analysis using an anti-V5 antibody. […] Nevertheless, no interaction between ΔETAQ GARS and NRP1 was detected in unbiased mass spectrometry analyses of proteins immuno-precipitated from mouse neuroblastoma (MN1) cells expressing FLAG-tagged wild-type or V5-tagged ΔETAQ GARS.
In general terms: In western blotting, separated proteins are transferred to a membrane and probed.

B1: V5-tagged wild-type human GARS (glycyl-tRNA synthetase) (enzyme, UniProt P41250-2 1-685, looked up)
chain: MDGAGAEEVLAPLRLAVRQQGDLVRKLKEDKAPQVDVDKAVAELKARKRVLEAKELALQPKDDIVDRAKMEDTLKRRFFYDQAFAIYGGVSGLYDFGPVGCALKNNIIQTWRQHFIQEEQILEIDCTMLTPEPVLKTSGHVDKFADFMVKDVKNGECFRADHLLKAHLQKLMSDKKCSVEKKSEMESVLAQLDNYGQQELADLFVNYNVKSPITGNDLSPPVSFNLMFKTFIGPGGNMPGYLRPETAQGIFLNFKRLLEFNQGKLPFAAAQIGNSFRNEISPRSGLIRVREFTMAEIEHFVDPSEKDHPKFQNVADLHLYLYSAKAQVSGQSARKMRLGDAVEQGVINNTVLGYFIGRIYLYLTKVGISPDKLRFRQHMENEMAHYACDCWDAESKTSYGWIEIVGCADRSCYDLSCHARATKVPLVAEKPLKEPKTVNVVQFEPSKGAIGKAYKKDAKLVMEYLAICDECYITEMEMLLNEKGEFTIETEGKTFQLTKDMINVKRFQKTLYVEEVVPNVIEPSFGLGRIMYTVFEHTFHVREGDEQRTFFSFPAVVAPFKCSVLPLSQNQEFMPFVKELSEALTRHGVSHKVDDSSGSIGRRYARTDEIGVAFGVTIDFDTVNKTPHTATLRDRDSMRQIRAEISELPSIVQDLANGNITWADVEARYPLFEGQETGKKETIEE
notes: Expressed by transfection in mouse NSC-34 cells and tested from the cell lysate; also called wild-type GARS; WT GARS; not shown: V5 tag expressed in-frame from pcDNA6
For B1, the binding result is “no binding”.

For the origin of these results see patent US20210324417A1 (RESEARCH INSTITUTE AT NATIONWIDE CHILDREN S HOSPITAL, published 2021).
